Measured values reported in patent publication US10961297 (SANFORD BURNHAM PREBYS MEDICAL DISCOVERY INSTITUTE, dated 2021).
Positions count from the first letter of the chain named. Names may count otherwise.

What was measured:
human BTLA-Fc (human) [1] = target: human BTLA-Fc (human) (UniProt Q7Z6A9); assay: SPR, human BTLA-Fc immobilised, Fc fusion as analyte, bivalent analysis
human BTLA-Fc (human) [2] = target: human BTLA-Fc (human) (UniProt Q7Z6A9); assay: SPR, human BTLA-Fc immobilised, Fc fusion as analyte, monovalent (1:1) analysis
human BTLA-Fc (human) [3] = target: human BTLA-Fc (human) (UniProt Q7Z6A9); assay: SPR, human BTLA-Fc immobilised, Fc fusion as analyte, monovalent analysis
[4] = target: T1, human HVEM T82P mutant on 293T cells (human, UniProt Q92956 39-283); assay: flow cytometry, CD160-Fc on 293T cells with mutant HVEM
T1 construct: also called Thr^82
T1 sequence: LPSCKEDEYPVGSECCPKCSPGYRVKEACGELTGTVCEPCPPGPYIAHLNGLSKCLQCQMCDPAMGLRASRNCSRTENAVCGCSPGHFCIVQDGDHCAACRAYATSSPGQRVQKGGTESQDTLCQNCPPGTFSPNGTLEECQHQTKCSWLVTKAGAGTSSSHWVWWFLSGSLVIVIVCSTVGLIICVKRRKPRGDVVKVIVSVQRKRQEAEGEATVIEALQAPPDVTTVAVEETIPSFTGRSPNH

[5] = target: T2, human HVEM G72D mutant on 293T cells (human, UniProt Q92956 39-283); assay: as above
T2 construct: also called Gly^72
T2 sequence: T1 sequence with G34D, P44T

[6] = target: T3, human HVEM P59S mutant on 293T cells (human, UniProt Q92956 39-283); assay: as above
T3 construct: also called Pro^59
T3 sequence: T1 sequence with P21S, P44T

[7] = target: T4, human HVEM Y61C mutant on 293T cells (human, UniProt Q92956 39-283); assay: as above
T4 construct: also called Tyr^61
T4 sequence: T1 sequence with Y23C, P44T

[8] = target: T5, human HVEM R109W mutant on 293T cells (human, UniProt Q92956 39-283); assay: as above
T5 construct: also called Arg^109
T5 sequence: T1 sequence with P44T, R71W

[9] = target: T6, human HVEM A102P mutant on 293T cells (human, UniProt Q92956 39-283); assay: as above
T6 construct: also called Ala^102
T6 sequence: T1 sequence with P44T, A64P

[10] = target: T7, human HVEM G60D mutant on 293T cells (human, UniProt Q92956 39-283); assay: as above
T7 construct: also called Gly^60
T7 sequence: T1 sequence with G22D, P44T

[11] = target: T8, wild-type human BTLA on cells (human, UniProt Q7Z6A9 31-289); assay: co-expression on 293T cells, loss of staining by Fc ligands in trans
T8 construct: whole, on cells

[12] = target: T1, human HVEM T82P mutant on 293T cells; assay: flow cytometry, LIGHT on 293T cells with mutant HVEM
[13] = target: T7, human HVEM G60D mutant on 293T cells; assay: as above
[14] = target: T9, human BTLA H127D mutant on EL4 cells (human, UniProt Q7Z6A9 31-289); assay: flow cytometry, EL4 cells transduced with mutant human BTLA, HVEM-Fc then anti-human Fc [panel B]
T9 construct: whole, on cells; also called His127

[15] = target: T10, human BTLA Q37A mutant on EL4 cells (human, UniProt Q7Z6A9 31-289); assay: as above
T10 construct: whole, on cells; also called Gln37

[16] = target: T11, human BTLA P59A mutant on EL4 cells (human, UniProt Q7Z6A9 31-289); assay: as above
T11 construct: whole, on cells; also called Pro59

[17] = target: T12, human BTLA R42D mutant on EL4 cells (human, UniProt Q7Z6A9 31-289); assay: as above
T12 construct: whole, on cells; also called Arg42

[18] = target: T13, BTLA (form in the assay not stated) (UniProt Q7Z6A9 31-157); assay: not told
T13 sequence: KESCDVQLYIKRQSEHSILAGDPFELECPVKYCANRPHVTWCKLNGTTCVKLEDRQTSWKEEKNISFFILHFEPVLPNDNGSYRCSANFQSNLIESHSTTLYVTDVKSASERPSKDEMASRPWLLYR

human BTLA-Fc (human), sequence (Q7Z6A9 26-150 limits assumed): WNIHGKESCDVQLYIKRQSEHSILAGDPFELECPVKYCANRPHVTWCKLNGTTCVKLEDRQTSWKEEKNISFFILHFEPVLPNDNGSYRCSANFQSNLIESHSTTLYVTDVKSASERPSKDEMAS

With human CMV UL144-Fc (Fc fusion) the ka1 (human BTLA-Fc (human) [1]) was 7810 M⁻¹ s⁻¹, the ka2 (human BTLA-Fc (human) [1]) was 1.39e-05 and the kd1 (human BTLA-Fc (human) [1]) was 0.0051 s⁻¹. It also gave a kd2 (human BTLA-Fc (human) [1]) of 0.00289 s⁻¹, a Kd (human BTLA-Fc (human) [2]) of 295 nM and a koff (human BTLA-Fc (human) [3]) of 0.00476 s⁻¹. The kon (human BTLA-Fc (human) [3]) was 16100 M⁻¹ s⁻¹.

In the case of “human HVEM-Fc (from UniProt Q92956 39-184) (Fc fusion)”, the ka1 (human BTLA-Fc (human) [1]) is reported as 15300 M⁻¹ s⁻¹, the ka2 (human BTLA-Fc (human) [1]) is reported as 0.0573 M⁻¹ s⁻¹ and the kd1 (human BTLA-Fc (human) [1]) is reported as 0.00902 s⁻¹. For the same molecule, the kd2 (human BTLA-Fc (human) [1]) was 2.05 s⁻¹, the Kd (human BTLA-Fc (human) [2]) was 177 nM and the koff (human BTLA-Fc (human) [3]) was 0.0066 s⁻¹. For the same molecule, the kon (human BTLA-Fc (human) [3]) was 37400 M⁻¹ s⁻¹.

B1: CD160-Fc (Fc fusion)
chain: INITSSASQEGTRLNLICTVWHKKEEAEGFVVFLCKDRSGDCSPETSLKQLRLKRDPGIDGVGEISSQLMFTISQVTPLHSGTYQCCARSQKSGIRLQGHFFSILFTETGNYTVTGLKQRQHLEFSHNEGTLS
B1: no binding [4]; no binding [5]; no binding [6]. B1: no binding [7]; no binding [8]; no binding [9]. B1: no binding [10].

B2: wild-type human HVEM on 293T cells (receptor)
chain: T1 sequence with P44T
notes: also called TNFRSF14
B2: binds [11].

B3: LIGHT (ligand)
chain: DGPAGSWEQLIQERRSHEVNPAAHLTGANSSLTGSGGPLLWETQLGLAFLRGLSYHDGALVVTKAGYYYIYSKVQLGGVGCPLGLASTITHGLYKRTPRYPEELELLVSQQSPCGRATSSSRVWWDSSFLGGVVHLEAGEKVVVRVLDERLVRLRDGTRSYFGAFMV
notes: also called TNFSF ligand LIGHT
B3: no binding [12]; no binding [13].

B4: human HVEM-Fc (Fc fusion)
chain: LPSCKEDEYPVGSECCPKCSPGYRVKEACGELTGTVCEPCPPGTYIAHLNGLSKCLQCQMCDPAMGLRASRNCSRTENAVCGCSPGHFCIVQDGDHCAACRAYATSSPGQRVQKGGTESQDTLCQNCPPGTFSPNGTLEECQHQTK
notes: also called parental HVEM-Fc; not shown: human IgG Fc region
B4: no binding [14]; no binding [15]; no binding [16]. B4: no binding [17].

B5: HVEM-RTWA (HVEM-Fc mutein with S58R, G68T, L70W and L90A) (Fc fusion)
chain: B4 chain with S20R, G30T, L32W, L52A
notes: also called RTWA mutant; HVEM^RTWA Fc; not shown: human IgG Fc region
With B5 the “fold enhancement of BTLA affinity (against HVEM-RA)” value [18] was 10 fold.
